Assay results as given in paper PMC9482650, “Quantitative fragmentomics allow affinity mapping of interactomes” (Nature Communications, 2022).
Numbering of substitutions follows the chain as printed.

T1: TX1BP3, O14907
T1 sequence (O14907 10-122, limits assumed, looked up): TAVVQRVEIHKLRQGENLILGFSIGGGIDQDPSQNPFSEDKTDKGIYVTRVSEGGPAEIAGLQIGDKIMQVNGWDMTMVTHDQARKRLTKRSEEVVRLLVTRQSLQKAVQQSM

T2: DLG3_2, Q92796
T2 sequence (Q92796 221-321, limits assumed, looked up): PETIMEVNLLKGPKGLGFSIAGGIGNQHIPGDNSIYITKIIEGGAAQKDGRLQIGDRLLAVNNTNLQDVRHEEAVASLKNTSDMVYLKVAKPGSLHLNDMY

T3: APBA2_2, Q99767
T3 sequence (Q99767 654-744, limits assumed, looked up): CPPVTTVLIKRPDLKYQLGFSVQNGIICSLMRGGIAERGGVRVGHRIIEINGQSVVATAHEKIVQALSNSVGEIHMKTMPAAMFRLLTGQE

T4: DLG3_1, Q92796
T4 sequence (Q92796 125-227, limits assumed, looked up): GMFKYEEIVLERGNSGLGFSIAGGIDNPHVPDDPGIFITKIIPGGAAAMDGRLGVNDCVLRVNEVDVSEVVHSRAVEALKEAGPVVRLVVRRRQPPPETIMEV

T5: RAPGEF6, Q8TEU7
T5 sequence (Q8TEU7 525-625, limits assumed, looked up): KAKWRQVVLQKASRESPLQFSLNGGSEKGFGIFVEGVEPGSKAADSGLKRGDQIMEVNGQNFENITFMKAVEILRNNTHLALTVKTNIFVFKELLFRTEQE

T6: APBA2_1, Q99767
T6 sequence (Q99767 563-664, limits assumed, looked up): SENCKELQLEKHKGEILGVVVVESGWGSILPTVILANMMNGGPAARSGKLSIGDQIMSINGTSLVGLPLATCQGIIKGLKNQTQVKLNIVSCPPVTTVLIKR

T7: PCLO, Q9Y6V0
T7 sequence (Q9Y6V0 4491-4600, limits assumed, looked up): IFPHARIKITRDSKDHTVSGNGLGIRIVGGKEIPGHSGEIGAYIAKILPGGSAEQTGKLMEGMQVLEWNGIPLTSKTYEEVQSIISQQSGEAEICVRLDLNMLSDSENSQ

T8: SNTG2, Q9NY99
T8 sequence (Q9NY99 68-166, limits assumed, looked up): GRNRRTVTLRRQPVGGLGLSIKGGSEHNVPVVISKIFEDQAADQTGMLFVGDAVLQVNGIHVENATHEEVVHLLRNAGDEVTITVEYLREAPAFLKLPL

T9: APBA1_1, Q02410
T9 sequence (Q02410 651-752, limits assumed, looked up): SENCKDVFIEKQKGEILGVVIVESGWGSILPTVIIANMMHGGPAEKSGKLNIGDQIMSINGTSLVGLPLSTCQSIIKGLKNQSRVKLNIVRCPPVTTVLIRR

T10: LIN7A, O14910
T10 sequence (O14910 103-200, limits assumed, looked up): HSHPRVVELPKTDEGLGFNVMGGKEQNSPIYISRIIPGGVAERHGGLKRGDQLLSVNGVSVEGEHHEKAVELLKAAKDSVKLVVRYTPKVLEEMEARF

T11: LIN7C, Q9NUP9
T11 sequence (Q9NUP9 88-185, limits assumed, looked up): T10 sequence (O14910 103-200, limits assumed, looked up) with D13E, V20I, V40I, E42D, K77Q, D78G, S79K, A96S

T12: PARD3B_1, Q8TEW8
T12 sequence (Q8TEW8 196-299, limits assumed, looked up): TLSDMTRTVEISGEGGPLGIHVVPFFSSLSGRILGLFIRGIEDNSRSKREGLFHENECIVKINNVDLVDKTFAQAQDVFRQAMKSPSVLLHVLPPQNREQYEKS


molecular target: LIMK2, P53671; assay: holdup assay; set-up: key: below the threshold = too weak to quantify, mostly under pKd 3.1 to 4; conditions: plain residues with an end cap or a label only (N-terminal biotin on a linker: ado-ado)
Sequence (P53671 143-248): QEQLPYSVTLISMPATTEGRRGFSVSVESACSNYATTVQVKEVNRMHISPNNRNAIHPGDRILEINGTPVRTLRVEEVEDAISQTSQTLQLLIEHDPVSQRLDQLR

Binder | pKd
AHGSTRDQSI [KCNB1, Q14721] | below the threshold
PALKNGQYWV [CSPG4, Q6UVK1] | below the threshold

molecular target: MAGI2_6, Q86UL8; assay: holdup assay; set-up: key: below the threshold = too weak to quantify, mostly under pKd 3.1 to 4; conditions: plain residues with an end cap or a label only (N-terminal biotin on a linker: ado-ado)
Sequence (Q86UL8 1141-1229): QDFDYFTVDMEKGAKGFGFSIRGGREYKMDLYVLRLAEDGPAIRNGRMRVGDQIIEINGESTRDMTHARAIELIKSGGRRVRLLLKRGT

Binder | pKd
AHGSTRDQSI [KCNB1, Q14721] | below the threshold
PALKNGQYWV [CSPG4, Q6UVK1] | 3.67

molecular target: FRMPD3, Q5JV73; assay: holdup assay; set-up: key: below the threshold = too weak to quantify, mostly under pKd 3.1 to 4; conditions: plain residues with an end cap or a label only (N-terminal biotin on a linker: ado-ado)
Sequence (Q5JV73 12-100): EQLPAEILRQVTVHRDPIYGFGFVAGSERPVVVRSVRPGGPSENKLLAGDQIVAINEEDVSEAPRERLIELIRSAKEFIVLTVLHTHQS

Binder | pKd
AHGSTRDQSI [KCNB1, Q14721] | below the threshold
PALKNGQYWV [CSPG4, Q6UVK1] | below the threshold

molecular target: T1, TX1BP3, O14907; assay: holdup assay; set-up: key: below the threshold = too weak to quantify, mostly under pKd 3.1 to 4; conditions: plain residues with an end cap or a label only (N-terminal biotin on a linker: ado-ado)

Binder | pKd
AHGSTRDQSI [KCNB1, Q14721] | 4.1
PALKNGQYWV [CSPG4, Q6UVK1] | 4.19

molecular target: T2, DLG3_2, Q92796; assay: holdup assay; set-up: key: below the threshold = too weak to quantify, mostly under pKd 3.1 to 4; conditions: plain residues with an end cap or a label only (N-terminal biotin on a linker: ado-ado)

Binder | pKd
AHGSTRDQSI [KCNB1, Q14721] | 4.21
PALKNGQYWV [CSPG4, Q6UVK1] | below the threshold

molecular target: Inadl_10, Q8NI35; assay: holdup assay; set-up: key: below the threshold = too weak to quantify, mostly under pKd 3.1 to 4; conditions: plain residues with an end cap or a label only (N-terminal biotin on a linker: ado-ado)
Sequence (Q8NI35 1673-1763): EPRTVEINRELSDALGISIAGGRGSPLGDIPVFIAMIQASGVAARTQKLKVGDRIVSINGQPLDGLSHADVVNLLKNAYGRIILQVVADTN

Binder | pKd
AHGSTRDQSI [KCNB1, Q14721] | below the threshold
PALKNGQYWV [CSPG4, Q6UVK1] | below the threshold

molecular target: T3, APBA2_2, Q99767; assay: holdup assay; set-up: key: below the threshold = too weak to quantify, mostly under pKd 3.1 to 4; conditions: plain residues with an end cap or a label only (N-terminal biotin on a linker: ado-ado)

Binder | pKd
AHGSTRDQSI [KCNB1, Q14721] | below the threshold
PALKNGQYWV [CSPG4, Q6UVK1] | below the threshold

molecular target: T4, DLG3_1, Q92796; assay: holdup assay; set-up: key: below the threshold = too weak to quantify, mostly under pKd 3.1 to 4; conditions: plain residues with an end cap or a label only (N-terminal biotin on a linker: ado-ado)

Binder | pKd
AHGSTRDQSI [KCNB1, Q14721] | 3.68
PALKNGQYWV [CSPG4, Q6UVK1] | below the threshold

molecular target: Inadl_9, Q8NI35; assay: holdup assay; set-up: key: below the threshold = too weak to quantify, mostly under pKd 3.1 to 4; conditions: plain residues with an end cap or a label only (N-terminal biotin on a linker: ado-ado)
Sequence (Q8NI35 1530-1615): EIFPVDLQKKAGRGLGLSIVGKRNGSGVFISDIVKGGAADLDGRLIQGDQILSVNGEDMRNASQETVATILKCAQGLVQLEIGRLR

Binder | pKd
AHGSTRDQSI [KCNB1, Q14721] | below the threshold
PALKNGQYWV [CSPG4, Q6UVK1] | 4.16

molecular target: ARHGEF12, Q9NZN5-2; assay: holdup assay; set-up: key: below the threshold = too weak to quantify, mostly under pKd 3.1 to 4; conditions: plain residues with an end cap or a label only (N-terminal biotin on a linker: ado-ado)
Sequence (Q9NZN5 other isoform, or with tags, fused parts or gaps): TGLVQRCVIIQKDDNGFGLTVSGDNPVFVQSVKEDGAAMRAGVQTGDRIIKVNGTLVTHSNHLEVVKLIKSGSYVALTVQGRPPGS

Binder | pKd
AHGSTRDQSI [KCNB1, Q14721] | below the threshold
PALKNGQYWV [CSPG4, Q6UVK1] | below the threshold

molecular target: HTRA2, O43464; assay: holdup assay; set-up: key: below the threshold = too weak to quantify, mostly under pKd 3.1 to 4; conditions: plain residues with an end cap or a label only (N-terminal biotin on a linker: ado-ado)
Sequence (O43464 355-458): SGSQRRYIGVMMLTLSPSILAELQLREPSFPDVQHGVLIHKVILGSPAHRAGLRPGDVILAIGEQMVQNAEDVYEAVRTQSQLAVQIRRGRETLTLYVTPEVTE

Binder | pKd
AHGSTRDQSI [KCNB1, Q14721] | below the threshold
PALKNGQYWV [CSPG4, Q6UVK1] | 4.72

molecular target: T5, RAPGEF6, Q8TEU7; assay: holdup assay; set-up: key: below the threshold = too weak to quantify, mostly under pKd 3.1 to 4; conditions: plain residues with an end cap or a label only (N-terminal biotin on a linker: ado-ado)

Binder | pKd
AHGSTRDQSI [KCNB1, Q14721] | 3.91
PALKNGQYWV [CSPG4, Q6UVK1] | below the threshold

molecular target: MAGI3_2, Q5TCQ9; assay: holdup assay; set-up: key: below the threshold = too weak to quantify, mostly under pKd 3.1 to 4; conditions: plain residues with an end cap or a label only (N-terminal biotin on a linker: ado-ado)
Sequence (Q5TCQ9 398-503): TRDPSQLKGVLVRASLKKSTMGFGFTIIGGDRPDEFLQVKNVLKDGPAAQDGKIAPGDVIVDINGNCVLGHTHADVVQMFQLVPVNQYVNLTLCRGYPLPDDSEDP

Binder | pKd
AHGSTRDQSI [KCNB1, Q14721] | below the threshold
PALKNGQYWV [CSPG4, Q6UVK1] | 4.03

molecular target: LNX1_1, Q8TBB1; assay: holdup assay; set-up: key: below the threshold = too weak to quantify, mostly under pKd 3.1 to 4; conditions: plain residues with an end cap or a label only (N-terminal biotin on a linker: ado-ado)
Sequence (Q8TBB1 261-371): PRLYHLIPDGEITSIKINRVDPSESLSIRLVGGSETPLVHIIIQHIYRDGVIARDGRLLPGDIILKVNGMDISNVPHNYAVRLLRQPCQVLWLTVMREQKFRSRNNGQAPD

Binder | pKd
AHGSTRDQSI [KCNB1, Q14721] | below the threshold
PALKNGQYWV [CSPG4, Q6UVK1] | below the threshold

molecular target: T6, APBA2_1, Q99767; assay: holdup assay; set-up: key: below the threshold = too weak to quantify, mostly under pKd 3.1 to 4; conditions: plain residues with an end cap or a label only (N-terminal biotin on a linker: ado-ado)

Binder | pKd
AHGSTRDQSI [KCNB1, Q14721] | below the threshold
PALKNGQYWV [CSPG4, Q6UVK1] | below the threshold

molecular target: T7, PCLO, Q9Y6V0; assay: holdup assay; set-up: key: below the threshold = too weak to quantify, mostly under pKd 3.1 to 4; conditions: plain residues with an end cap or a label only (N-terminal biotin on a linker: ado-ado)

Binder | pKd
AHGSTRDQSI [KCNB1, Q14721] | below the threshold
PALKNGQYWV [CSPG4, Q6UVK1] | below the threshold

molecular target: GRIP2_7, Q9C0E4; assay: holdup assay; set-up: key: below the threshold = too weak to quantify, mostly under pKd 3.1 to 4; conditions: plain residues with an end cap or a label only (N-terminal biotin on a linker: ado-ado)
Sequence (Q9C0E4 934-1023): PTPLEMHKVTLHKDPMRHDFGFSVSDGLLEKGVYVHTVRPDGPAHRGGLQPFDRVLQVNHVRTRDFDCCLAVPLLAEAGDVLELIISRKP

Binder | pKd
AHGSTRDQSI [KCNB1, Q14721] | below the threshold
PALKNGQYWV [CSPG4, Q6UVK1] | 5.83

molecular target: LNX1_2, Q8TBB1; assay: holdup assay; set-up: key: below the threshold = too weak to quantify, mostly under pKd 3.1 to 4; conditions: plain residues with an end cap or a label only (N-terminal biotin on a linker: ado-ado)
Sequence (Q8TBB1 371-470): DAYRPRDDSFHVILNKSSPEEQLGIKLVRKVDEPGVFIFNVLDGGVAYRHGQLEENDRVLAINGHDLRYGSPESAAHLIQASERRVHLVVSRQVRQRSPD

Binder | pKd
AHGSTRDQSI [KCNB1, Q14721] | below the threshold
PALKNGQYWV [CSPG4, Q6UVK1] | 4.27

molecular target: T8, SNTG2, Q9NY99; assay: holdup assay; set-up: key: below the threshold = too weak to quantify, mostly under pKd 3.1 to 4; conditions: plain residues with an end cap or a label only (N-terminal biotin on a linker: ado-ado)

Binder | pKd
AHGSTRDQSI [KCNB1, Q14721] | below the threshold
PALKNGQYWV [CSPG4, Q6UVK1] | below the threshold

molecular target: T9, APBA1_1, Q02410; assay: holdup assay; set-up: key: below the threshold = too weak to quantify, mostly under pKd 3.1 to 4; conditions: plain residues with an end cap or a label only (N-terminal biotin on a linker: ado-ado)

Binder | pKd
AHGSTRDQSI [KCNB1, Q14721] | below the threshold
PALKNGQYWV [CSPG4, Q6UVK1] | below the threshold

molecular target: GRASP, Q7Z6J2; assay: holdup assay; set-up: key: below the threshold = too weak to quantify, mostly under pKd 3.1 to 4; conditions: plain residues with an end cap or a label only (N-terminal biotin on a linker: ado-ado)
Sequence (Q7Z6J2 96-193): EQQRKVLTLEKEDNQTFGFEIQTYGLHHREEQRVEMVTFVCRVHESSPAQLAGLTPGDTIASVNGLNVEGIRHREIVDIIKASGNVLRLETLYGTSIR

Binder | pKd
AHGSTRDQSI [KCNB1, Q14721] | below the threshold
PALKNGQYWV [CSPG4, Q6UVK1] | below the threshold

molecular target: T10, LIN7A, O14910; assay: holdup assay; set-up: key: below the threshold = too weak to quantify, mostly under pKd 3.1 to 4; conditions: plain residues with an end cap or a label only (N-terminal biotin on a linker: ado-ado)

Binder | pKd
AHGSTRDQSI [KCNB1, Q14721] | below the threshold
PALKNGQYWV [CSPG4, Q6UVK1] | below the threshold

molecular target: T11, LIN7C, Q9NUP9; assay: holdup assay; set-up: key: below the threshold = too weak to quantify, mostly under pKd 3.1 to 4; conditions: plain residues with an end cap or a label only (N-terminal biotin on a linker: ado-ado)

Binder | pKd
AHGSTRDQSI [KCNB1, Q14721] | below the threshold
PALKNGQYWV [CSPG4, Q6UVK1] | 4.15

molecular target: T12, PARD3B_1, Q8TEW8; assay: holdup assay; set-up: key: below the threshold = too weak to quantify, mostly under pKd 3.1 to 4; conditions: plain residues with an end cap or a label only (N-terminal biotin on a linker: ado-ado)

Binder | pKd
AHGSTRDQSI [KCNB1, Q14721] | below the threshold
PALKNGQYWV [CSPG4, Q6UVK1] | 3.71

molecular target: DLG1_3, Q12959; assay: holdup assay; set-up: key: below the threshold = too weak to quantify, mostly under pKd 3.1 to 4; conditions: plain residues with an end cap or a label only (N-terminal biotin on a linker: ado-ado)
Sequence (Q12959 457-571): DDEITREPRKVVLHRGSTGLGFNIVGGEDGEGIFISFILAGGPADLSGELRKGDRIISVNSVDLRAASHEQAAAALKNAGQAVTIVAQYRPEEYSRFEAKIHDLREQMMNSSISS

Binder | pKd
AHGSTRDQSI [KCNB1, Q14721] | 3.93
PALKNGQYWV [CSPG4, Q6UVK1] | below the threshold
